These results are taken from article PMC10743992, “A Transient π–π or Cation–π Interaction between Degron and Degrader Dual Residues: A Key Step for the Substrate Recognition and Discrimination in the Processive Degradation of SulA by ClpYQ (HslUV) Protease in Escherichia coli” (International Journal of Molecular Sciences, 2023).

Substitutions are numbered along the chain they refer to. Names may count otherwise.

First the molecules themselves.
T1: His (6x)-tagged ClpY (Escherichia coli, UniProt P0A6H5 1-443)
T1 construct: ClpY (HslU) ATPase/unfoldase of Escherichia coli, wild type, cloned in pET21a at NdeI-HindIII; Used as the 6-oligomer (1.3 uM) with 5 mM ATP; also called His-ClpY; HslU
T1 sequence (looked up): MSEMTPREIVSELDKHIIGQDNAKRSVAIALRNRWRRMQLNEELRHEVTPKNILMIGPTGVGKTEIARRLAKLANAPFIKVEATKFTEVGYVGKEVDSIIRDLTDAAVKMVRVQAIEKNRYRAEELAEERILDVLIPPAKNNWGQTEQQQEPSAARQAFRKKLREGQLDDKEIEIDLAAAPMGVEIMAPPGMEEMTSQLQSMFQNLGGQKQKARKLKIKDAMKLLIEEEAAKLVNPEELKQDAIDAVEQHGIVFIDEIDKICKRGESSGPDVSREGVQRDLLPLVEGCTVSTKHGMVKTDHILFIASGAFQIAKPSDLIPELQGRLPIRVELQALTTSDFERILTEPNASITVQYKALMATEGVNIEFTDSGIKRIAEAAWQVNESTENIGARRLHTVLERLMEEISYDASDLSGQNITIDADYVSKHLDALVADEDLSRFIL

B1: MBP-SulA (natural protein, Escherichia coli, UniProt P0AFZ5 1-169, looked up)
chain: MYTSGYAHRSSSFSSAASKIARVSTENTTAGLISEVVYREDQPMMTQLLLLPLLQQLGQQSRWQLWLTPQQKLSREWVQASGLPLTKVMQISQLSPCHTVESMVRALRTGNYSVVIGWLADDLTEEEHAELVDAANEGNAMGFIMRPVSASSHATRQLSGLKIHSNLYH
notes: also called wild-type MBP-SulA; source: E. coli BL21 (DE3), purified (amylose resin)
B2: MBP-SulA^F143K (natural protein, Escherichia coli, UniProt P0AFZ5 1-169, looked up)
chain: B1 chain with F143K
notes: SulA of Escherichia coli with F143K, cloned in pMal-c2X at EcoRI-BamHI; source: E. coli BL21 (DE3), purified (amylose resin)
B3: MBP-SulA^F143H (natural protein, Escherichia coli, UniProt P0AFZ5 1-169, looked up)
chain: B1 chain with F143H
notes: SulA of Escherichia coli with F143H, cloned in pMal-c2X at EcoRI-BamHI; source: E. coli BL21 (DE3), purified (amylose resin)

In the test the target is T1, His (6x)-tagged ClpY. Nature of the test: pull-down; His-ClpY (6-oligomer, 1.3 uM) held on cobalt resin; MBP-SulA or variant 7.8 uM; 50 mM HEPES pH 7.4, 150 mM NaCl, 5% glycerol, 5 mM MgCl2, 0.04% Triton X-100, 5 mM ATP, 41 °C 3 h, then resin at 4 °C; 10 washes with 300 mM NaCl; SDS-PAGE, Coomassie. As to conditions: both partners purified.
In the case of B1, the binding result was “binds”.
To B2 belongs “binds”; to B3, “binds”.
